We go through 167 variants from the RNAGym collection of RNA variant scans (doi:10.1093/nar/gkz1192).

The chains are these.
B1: CPEB3 Ribozyme (parent)
chain: UAACAGGGGGCCACAGCAGAAGCGUUCACGUCGCAGCCCCUGUCAGAUUCUGGUGAAUCUGCGAAUUCUGCUGUAUAUCUC

Variants of B1 are the subject of the data set. Description: self-cleavage, relative activity (ratio to wild type); higher = more cleavage; in vitro, sequencing. The method, boiled down: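 Barcoded CPEB3 ribozyme mutants, produced by rounds of error-prone PCR, self-cleaved while being transcribed with T7 RNA polymerase for 5 hours at 37°C and during a subsequent 15 min DNase I step before EDTA was added. Sequencing of template-switched cDNA on Illumina gave cleaved and total reads, and DNA sequencing assigned barcodes to variants. Each variant's relative activity is its cleaved/total read fraction divided by the unmutated ribozyme's fraction, averaged across three batches. A variant needed a minimum of 5 reads.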
Consider A35U U60A, for which the self-cleavage turned out to be 0.25.

Take A35U U60G: the self-cleavage came to 0.17.

As for A35U U60C, the self-cleavage was determined as 0.24.

For A35U G63U, the self-cleavage worked out at 0.52.

A35U G63C: the self-cleavage worked out at 0.45.

With A35U G63A, the self-cleavage came to 0.27.

For the variant A35G U41A, the self-cleavage turned out to be 0.44.

On to A35G U41G, for which the self-cleavage is 0.33.

On to A35G U41C, for which the self-cleavage was found to be 1.23.

For A35U A57G, the self-cleavage is 0.47.

With A35U A57U, the self-cleavage was determined as 0.2.

For the variant A35U A57C, the self-cleavage was 0.31.

For the variant A35G U72A, the self-cleavage was 1.22.

On to A35G U72G, for which the self-cleavage was found to be 1.29.

As for A35G U72C, the self-cleavage was found to be 1.26.

Consider A35G U48C, for which the self-cleavage stood at 1.21.

Regarding A35G U48A, the self-cleavage is 1.14.

In the case of A35U A45U, the self-cleavage stood at 0.32.

For A35U A45G, the self-cleavage was found to be 0.32.

Take A35U A45C: the self-cleavage came to 0.18.

For A35U C71U, the self-cleavage was 0.37.

Turning to A35U C71G, the self-cleavage amounted to 0.15.

For the variant A35U C71A, the self-cleavage was found to be 0.13.

Turning to A35U G70A, the self-cleavage is 0.2.

For A35U G70C, the self-cleavage was determined as 0.34.

Turning to A35U G52C, the self-cleavage was found to be 0.44.

For A35U G52U, the self-cleavage came to 0.72.

Turning to A35U G52A, the self-cleavage is 0.54.

Regarding A35G G52C, the self-cleavage amounted to 1.27.

With A35G G52A, the self-cleavage was 1.36.

For the variant A35G G52U, the self-cleavage was determined as 1.36.

On to A35U C37U, for which the self-cleavage turned out to be 0.28.

As to A35G U74C, the self-cleavage amounted to 1.29.

In the case of A35G U74A, the self-cleavage came to 1.33.

With A35G U74G, the self-cleavage came out at 1.27.

A35G U66C: the self-cleavage was 1.17.

For the variant A35G U66A, the self-cleavage was found to be 1.34.

Regarding A35G U66G, the self-cleavage was 1.26.

As to A35U C50A, the self-cleavage amounted to 0.43.

Regarding A35G U58A, the self-cleavage came to 1.07.

In the case of A35G U58C, the self-cleavage amounted to 1.23.

Regarding A35G U58G, the self-cleavage came to 1.09.

Consider A35G G73A, for which the self-cleavage came out at 1.46.

Turning to A35U U58C, the self-cleavage was found to be 0.27.

As for A35U U58A, the self-cleavage was 0.32.

Consider A35U U58G, for which the self-cleavage was found to be 0.15.

In the case of A35U U54C, the self-cleavage turned out to be 0.5.

Turning to A35U U54G, the self-cleavage was determined as 0.58.

As for A35U U54A, the self-cleavage came to 0.55.

A35G U78G: the self-cleavage is 1.29.

For the variant A35G U78A, the self-cleavage amounted to 1.35.

For the variant A35G U78C, the self-cleavage stood at 1.3.

Turning to A35G G70A, the self-cleavage came out at 1.13.

On to A35G G70U, for which the self-cleavage was 0.78.

As for A35U, the self-cleavage came to 0.54.

For A35U C81G, the self-cleavage is 0.39.

Turning to A35U C81U, the self-cleavage was 0.61.

On to A35U A64C, for which the self-cleavage was found to be 0.16.

In the case of A35U A64G, the self-cleavage was determined as 0.39.

As to A35U A64U, the self-cleavage is 0.48.

With A35U A75U, the self-cleavage stood at 0.56.

On to A35U A75C, for which the self-cleavage was 0.71.

As for A35U A75G, the self-cleavage was determined as 0.58.

For A35G U69G, the self-cleavage came to 1.33.

For the variant A35G U69A, the self-cleavage was 1.22.

A35G U69C: the self-cleavage was 1.2.

A35G U80C: the self-cleavage came out at 1.3.

On to A35G U80G, for which the self-cleavage was determined as 1.37.

Regarding A35G U80A, the self-cleavage came to 1.32.

With A35G C79U, the self-cleavage was 1.51.

As to A35G C79A, the self-cleavage came out at 1.3.

For the variant A35G U43C, the self-cleavage amounted to 1.22.

On to A35G U43G, for which the self-cleavage was 0.36.

Take A35G U43A: the self-cleavage came to 1.28.

Turning to A35U C44A, the self-cleavage came out at 0.16.

For the variant A35U C44U, the self-cleavage amounted to 0.16.

On to A35G G36A, for which the self-cleavage was found to be 0.92.

Regarding A35G G36C, the self-cleavage stood at 0.29.

With A35G G36U, the self-cleavage is 0.5.

Take A35G U51G: the self-cleavage came to 1.28.

As for A35G U51C, the self-cleavage came out at 1.27.

For A35G U51A, the self-cleavage was found to be 1.32.

A35U A47C: the self-cleavage turned out to be 0.4.

For the variant A35U A47G, the self-cleavage came to 0.48.

Consider A35U A47U, for which the self-cleavage was determined as 0.26.

Take A35U A65G: the self-cleavage was 0.26.

In the case of A35U A65C, the self-cleavage turned out to be 0.45.

As to A35U A65U, the self-cleavage was 0.26.

As to A35G G63A, the self-cleavage was found to be 1.29.

Regarding A35G G63C, the self-cleavage was 1.27.

A35G G63U: the self-cleavage is 1.2.

In the case of A35U A56C, the self-cleavage came to 0.23.

As to A35U A56G, the self-cleavage amounted to 0.5.

With A35U A56U, the self-cleavage stood at 0.33.

With A35U U43C, the self-cleavage stood at 0.35.

In the case of A35U U43A, the self-cleavage stood at 0.71.

With A35U U43G, the self-cleavage was 0.15.

A35U C79U: the self-cleavage turned out to be 0.64.

Take A35U U66A: the self-cleavage stood at 0.34.

Consider A35U A77G, for which the self-cleavage came out at 0.57.

With A35U A77U, the self-cleavage came out at 0.59.

A35U U51G: the self-cleavage came out at 0.47.

Take A35U U51A: the self-cleavage is 0.56.

Turning to A35U U51C, the self-cleavage stood at 0.46.

A35G U76G: the self-cleavage came to 1.49.

Regarding A35G U76C, the self-cleavage stood at 1.29.

For A35G U76A, the self-cleavage came to 1.33.

Regarding A35G U67C, the self-cleavage was determined as 0.56.

A35G U67G: the self-cleavage was 1.11.

Take A35G U67A: the self-cleavage is 1.2.

As for A35G G46A, the self-cleavage was 0.96.

For the variant A35G G46C, the self-cleavage was determined as 1.12.

Regarding A35G U60C, the self-cleavage is 1.03.

As for A35G U60A, the self-cleavage was determined as 1.14.

As for A35G U60G, the self-cleavage was 1.04.

With A35U G73A, the self-cleavage was 0.88.

Regarding A35U C40A, the self-cleavage turned out to be 0.09.

On to A35U C40U, for which the self-cleavage stood at 0.37.

Turning to A35U C40G, the self-cleavage is 0.17.

For the variant A35G C81U, the self-cleavage is 1.29.

In the case of A35G C81A, the self-cleavage turned out to be 1.3.

Consider A35U U41G, for which the self-cleavage came out at 0.32.

As for A35U U41A, the self-cleavage is 0.3.

For the variant A35U U41C, the self-cleavage came to 0.5.

In the case of A35U G36A, the self-cleavage is 0.19.

Turning to A35U G36U, the self-cleavage is 0.1.

For the variant A35U C39A, the self-cleavage was found to be 0.27.

A35U C39U: the self-cleavage was found to be 0.49.

Regarding A35G G53U, the self-cleavage amounted to 1.27.

Take A35G G53A: the self-cleavage was 1.33.

Turning to A35U C62A, the self-cleavage is 0.13.

A35U C62G: the self-cleavage was determined as 0.28.

As to A35U C62U, the self-cleavage came to 0.13.

Regarding A35G C59U, the self-cleavage amounted to 1.2.

Take A35U G55U: the self-cleavage is 0.43.

In the case of A35U G55C, the self-cleavage stood at 0.47.

On to A35U C38A, for which the self-cleavage came out at 0.21.

For A35U C38U, the self-cleavage is 0.47.

With A35U G61U, the self-cleavage stood at 0.42.

Turning to A35U G61A, the self-cleavage worked out at 0.27.

For A35U G53A, the self-cleavage turned out to be 0.51.

Turning to A35U G53U, the self-cleavage came to 0.76.

As to A35U G46A, the self-cleavage turned out to be 0.16.

In the case of A35U G46U, the self-cleavage was 0.19.

As to A35G G61A, the self-cleavage was 1.11.

Take A35G G61U: the self-cleavage was 1.23.

With A35U U48A, the self-cleavage was determined as 0.32.

As for A35U U48G, the self-cleavage was 0.26.

With A35U U48C, the self-cleavage is 0.32.

On to A35G U54A, for which the self-cleavage was 1.28.

In the case of A35G U54C, the self-cleavage is 1.29.

Turning to A35G U54G, the self-cleavage amounted to 1.32.

On to A35G C62G, for which the self-cleavage turned out to be 0.51.

A35G C62A: the self-cleavage was 0.52.

For A35G C62U, the self-cleavage was 0.34.

Consider A35U C68A, for which the self-cleavage was 0.11.

As to A35G C68A, the self-cleavage was determined as 1.19.

As to A35G U49A, the self-cleavage came to 1.23.

In the case of A35G U49C, the self-cleavage is 1.05.

Turning to A35G G42C, the self-cleavage worked out at 0.16.

On to A35G G42A, for which the self-cleavage turned out to be 0.5.

Regarding A35U C59A, the self-cleavage worked out at 0.15.

In the case of A35U C59U, the self-cleavage amounted to 0.29.

Take A35G G55C: the self-cleavage is 1.46.

In the case of A35G G55A, the self-cleavage stood at 1.23.

In the case of A35U U49A, the self-cleavage turned out to be 0.39.

On to A35U U49C, for which the self-cleavage stood at 0.27.
